Data: patent publication US20220389077A1, “ALLOGENEIC CELL COMPOSITIONS AND METHODS OF USE” (Poseida Therapeutics, Inc., priority 2018, published 2022)

B1: CD2z CSR: chimeric stimulatory receptor: CD2 signal peptide, extracellular, transmembrane and cytoplasmic domains with CD3z intracellular domain (SEQ ID NO: 17062) (protein)
chain: MSFPCKFVASFLLIFNVSSKGAVSKEITNALETWGALGQDINLDIPSFQMSDDIDDIKWEKTSDKKKIAQFRKEKETFKEKDTYKLFKNGTLKIKHLKTDDQDIYKVSIYDTKGKNVLEKIFDLKIQERVSKPKISWTCINTTLTCEVMNGTDPELNLYQDGKHLKLSQRVITHKWTTSLSAKFKCTAGNKVSKESSVEPVSCPEKGLDIYLIIGICGGGSLLMVFVALLVFYITKRKKQRSRRNDEELETRAHRVATEERGRKPHQIPASTPQNPATSQHPPPPPGHRSQAPSHRPPPPGHRVQHQPQKRPPAPSGTQVHQQKGPPLPRPRVQPKPPHGAAENSLSPSSNRVKFSRSADAPAYKQGQNQLYNELNLGRREEYDVLDKRRGRDPEMGGKPRRKNPQEGLYNELQKDKMAEAYSEIGMKGERRRGKGHDGLYQGLSTATKDTYDALHMQALPPR

How the values were obtained:
purified DKO CAR-T cells = experiment: Re-stimulation and secondary expansion of purified DKO CAR-T cells, with or without IL7 and IL15; format: cell-based, human; conditions: 14 day culture; re-stimulation
Method: After initial genetic modification and a first round of stimulation and expansion, cells from each group (Mock (WT CAR-T cells), DKO CAR-T cells, DKO CAR-T cells+CD2z CSR, and DKO CAR-T cells+CD28z CSR) were purified for TCR^−MHCI^− cells using magnetic beads. The purified cells were then re-stimulated using anti-CD2, anti-CD3, and anti-CD28 agonist mAbs. At the end of the 14 day culture period, TCR and MHCI expression (A) as well as magnitude of cell population expansion (B) was determined. After this secondary expansion, all purified DKO cells, including those expressing either CD2z or CD28z CSR, were still extremely pure for DKO cells (>98.8% DKO).
FIG. 11 is a graph showing that cytokine supplementation can further expand purified DKO CAR-T cells expressing CSR upon re-stimulation. After initial genetic modification and a first round of stimulation and expansion, cells expressing CSRs were purified for DKO cells using magnetic beads. The purified cells were then re-stimulated using anti-CD2, anti-CD3, and anti-CD28 agonist mAbs in the presence exogenous purified recombinant IL7 and IL15. At the end of the 14 day culture period, magnitude of cell population expansion was determined. After a secondary expansion, all purified DKO cells, including those expressing either CD2z or CD28z CSR, were still extremely pure for TCR^−MHCI^− cells (>98.8% double knockout (data not shown)). […]

[1] = tested on: CAR molecule on the surface of T cells; experiment: Staining for surface expression of CAR after secondary expansion; format: cell-based, human; conditions: DKO cells
Description: After secondary expansion, cells (Mock (WT T cells), WT CAR-T cells, DKO CAR-T cells, DKO CAR-T cells+CD2z CSR, and DKO CAR-T cells+CD28z CSR) were stained for the surface-expression of CAR and compared to control WT CAR-T cells and Mock T cells.

eK562-Luc.BCMA = experiment: Luciferase killing assay, 48 hour co-culture; format: cell-based; conditions: 10:1, 3:1, 1:1 E:T
Method: After secondary expansion, cells (Mock (WT T cells), WT CAR-T cells, DKO CAR-T cells, DKO CAR-T cells+CD2z CSR, and DKO CAR-T cells+CD28z CSR) were co-cultured with engineered K562-BCMA-Luciferase (eK562-Luc.BCMA) or negative control line K562-PSMA-Luciferase (eK562-Luc.PSMA) for 48 hours at 10:1, 3:1, or 1:1 E:T ratios. Luciferase signal was measured to determine cytotoxicity. Killing of eK562-Luc.PSMA is shown in dotted lines, while killing of eK562-Luc.BCMA is shown in solid lines. All CAR^+ T cells expressed an anti-BCMA specific CAR.
CSRs were delivered to CAR-T cells either transiently by mRNA or stably by piggyBac®. Pan T cells isolated from the blood of a normal donor were genetically modified using the piggyBac® DNA modification system and the standard Poseida process. Cells were co-electroporated in a single reaction with mRNA encoding the Super piggyBac™ transposase enzyme (SPB), a transposon encoding a BCMA CAR and selection gene, along with an additional mRNA encoding a CSR (either CD28z or CD2z; resulting in transient expression), or, with a transposon encoding a BCMA CAR, selection gene and a CSR (either CD28z or CD2z; resulting in stable expression). The cells were subsequently stimulated with agonist mAbs anti-CD2, anti-CD3 and anti-CD28, and were later selected for genetic modification over the course of a 19 day culture period. At the end of the initial culture period all T cells expressed the CAR, indicating successful selection for genetically-modified cells (data not shown). To assess CAR-T cell ability to kill, cells were co-cultured with engineered K562-BCMA-Luciferase (eK562-Luc.BCMA) or negative control line K562-Luciferase (eK562-Luc) for 48 hours at 10:1, 3:1, or 1:1 E:T ratios. Luciferase signal was measured to determine cytotoxicity. Killing of eK562-Luc is shown in bar graph on left, while killing of eK562-Luc.BCMA is shown in bar graph on right.

[2] = tested on: CD45RA, CD45RO, and CD62L; experiment: Memory phenotype by surface CD45RA, CD45RO and CD62L staining; format: cell-based, human; conditions: WT and DKO CAR-T cells
Description: WT CAR-T cells, DKO CAR-T cells, DKO CAR-T cells+CD2z, and DKO CAR-T cells+CD28z were stained for expression of surface CD45RA, CD45RO, and CD62L to define Tscm, Tcm, Tem, and Teff cells; Tscm (CD45RA^+CD45RO^−CD62L^+), Tcm (CD45RA^−CD45RO^+CD62L^+), Tem (CD45RA^−CD45RO^+CD62L^−), Teff (CD45RA^+CD45RO^−CD62L^−). […] This phenotype may have a negative impact on the in vivo functionality of these CAR T cells since they appear to be more differentiated.
Allo CAR-T cells with no CSR and Allo CAR-Ts with CSR that was delivered either stably or transiently were stained for expression of surface CD45RA, CD45RO, and CD62L to define Tscm, Tcm, Tem, and Teff cells; Tscm (CD45RA^+CD45RO^−CD62L), Tcm (CD45RA^−CD45RO^+CD62L^+), Tem (CD45RA^−CD45RO^+CD62L^−), Teff ([…]CD62L^−). All samples were performed in duplicate, and data is shown in bar graph where error bars represent standard deviation.

Lag3, PD1, and Tim3 = experiment: Flow cytometry for exhaustion molecules; format: cell-based, human; conditions: compared to mock T cells
Description: Mock (WT T cells), WT CAR-T cells, DKO CAR-T cells, DKO CAR-T cells+CD2z, and DKO CAR-T cells+CD28z were examined by flow cytometry for the expression of important exhaustion molecules Lag3, PD1, and Tim3. […] This phenotype may have a negative impact on the in vivo functionality of these CAR T cells since they appear to be more exhausted.

Pan T cells = experiment: Surface expression of CSR and cellular activation (FSC-A, CD69) after mRNA electroporation of T cells; format: cell-based, human; conditions: for cellular activation (FSC-A, CD69): absence of exogenous stimulation; for surface expression by flow cytometry: two days after electroporation of 10 μg mRNA
Method: Pan T cells from normal blood donors were stimulated with anti-CD3/anti-CD28 beads in standard T cell culture media, then rested. These cells were then electroporated (BTX ECM 830 electroporator @ 500V for 700 μs) with 10 μg of mRNA encoding either CD28 CSR, CD2 CSR, or wild-type CD19 control. Two days later the electroporated cells were examined by flow cytometry for surface-expression of each molecule and data are shown as stacked histograms. In addition, cell size (FSC-A) and CD69 expression was evaluated as a possible indication of cellular activation above the Mock electroporated control cells.

[3] = CAR-T cells with transient (mRNA) or stable (piggyBac) CSR

| Molecule | magnitude of cell population expansion compared to those not expressing either CSR (purified DKO CAR-T cells) | surface expression of CAR [1] | in vitro cytotoxicity (luciferase signal) (eK562-Luc.BCMA; [3]) | in vitro cytotoxicity (luciferase signal) (eK562-Luc.BCMA; DKO CAR-T cells) | memory phenotype (Tscm, Tcm, Tem, Teff) [2] | expression of exhaustion molecules Lag3, PD1, and Tim3 (Lag3, PD1, and Tim3) | cellular activation (FSC-A, CD69) (Pan T cells) | surface expression by flow cytometry (Pan T cells) |
| --- | --- | --- | --- | --- | --- | --- | --- | --- |
| CD28z CSR: chimeric stimulatory receptor: CD28 signal peptide, extracellular, transmembrane and cytoplasmic domains with CD3z intracellular domain (SEQ ID NO: 17060) | enhanced expansion | does not have a significant impact | not significantly affected | not significantly affected | significantly more differentiated, favoring Tcm and Tem cells | significant upregulation of exhaustion markers Lag3, PD1, and Tim3 | did not intrinsically activate the cells | Increased surface expression |
| B1 | enhanced expansion | does not have a significant impact | not significantly affected | not significantly affected | comprised predominantly of exceptionally high levels of favorable Tscm and Tcm cells | little to no expression of exhaustion molecules | did not intrinsically activate the cells | Increased surface expression |
